The values that follow come from patent US20200255516A1 (JIANGSU HENGRUI MEDICINE, published 2020).

The target in assay [1] is T1, human TIGIT (Sinobiological Co., Ltd., Cat. 10917-H08-H) (human, UniProt Q495A1 22-141).
T1 construct: also called huTIGIT; TIGIT-His
T1 sequence (looked up): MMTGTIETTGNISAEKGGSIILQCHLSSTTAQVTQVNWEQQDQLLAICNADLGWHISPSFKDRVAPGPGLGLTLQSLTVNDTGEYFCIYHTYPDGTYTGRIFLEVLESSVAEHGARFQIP
In words: SPR (Biacore), captured antibody, TIGIT-His as analyte. A general note: In SPR one partner is held on a chip, and binding of the other changes the refractive index at the surface.

The target in assay [2] is T2, Full-length human TIGIT on CHO cells overexpressing TIGIT (human, UniProt Q495A1 22-244).
T2 construct: also called TIGIT-CHO cells; CHO cells overexpressing human TIGIT
T2 sequence: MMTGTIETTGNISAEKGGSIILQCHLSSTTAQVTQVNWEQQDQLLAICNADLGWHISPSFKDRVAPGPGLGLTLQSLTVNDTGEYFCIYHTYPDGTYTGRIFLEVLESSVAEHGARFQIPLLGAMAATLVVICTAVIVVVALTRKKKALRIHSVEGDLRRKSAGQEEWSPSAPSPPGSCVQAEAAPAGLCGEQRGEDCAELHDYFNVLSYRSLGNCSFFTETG
The experiment in a line: cell ELISA on fixed CHO cells overexpressing human TIGIT. For orientation: ELISA stands for enzyme-linked immunosorbent assay.

For assay [3], the target named is T3, human TIGIT on SEB-activated human PBMC (human, UniProt Q495A1).
T3 construct: native, on the cell surface
T3 sequence (receptor chain, looked up): T2 sequence
In words: flow cytometry on SEB-activated human PBMC, PE anti-human IgG, MFI.

Assay [4] deals with T2, Full-length human TIGIT on CHO cells …. In words: FACS blocking assay on TIGIT-CHO cells; competitor CF633-labeled CD155-Fc at 2 ug/ml.
Assay [5] concerns the target T1, human TIGIT (Sinobiological Co., Ltd., …). The experiment in a line: SPR (Biacore T200), antibody captured via Protein A, huTIGIT in mobile phase, 1:1 Langmuir fit.
Assay [6] concerns the target T4, cynoTIGIT-mFc (fusion protein of cynoTIGIT extracellular domain and mouse IgG2a Fc fragment) (cynomolgus).
T4 construct: also called monkey TIGIT; cynomolgus TIGIT-mFc fusion protein
The experiment in a line: SPR (Biacore T200), antibody held by Fc affinity capture, cynoTIGIT-mFc in mobile phase, 1:1 Langmuir fit.

The target in assay [7] is T5, TIGIT fusion protein with Fc or mFc tag (human, UniProt Q495A1 22-141).
T5 construct: extracellular domain; also called TIGIT-Fc; TIGIT-mFc
T5 sequence (looked up): T1 sequence (looked up)
The experiment in a line: ELISA: human TIGIT-Fc or TIGIT-mFc captured by coated anti-Fc antibody, HRP secondary antibody, OD450.

Assay [8] has as its target T5, TIGIT fusion protein with Fc or mFc tag. The experiment in a line: HTRF blocking assay: TIGIT-Fc or TIGIT-mFc with biotinylated CD155 as the blocked ligand, ratio 665/620. A general note: Time-resolved FRET reads energy transfer from a long-lived donor to a nearby acceptor.
The target of assay [9] is T4, cynoTIGIT-mFc (fusion protein of …). The experiment in a line: ELISA: cynomolgus TIGIT-Fc or TIGIT-mFc captured by coated anti-Fc antibody, HRP secondary antibody, OD450.
In assay [10] the target is T5, TIGIT fusion protein with Fc or mFc tag. The experiment in a line: FACS blocking assay: TIGIT-mFc pre-incubated with the antibody, added to CHO cells overexpressing CD112 (blocked ligand), PE anti-mouse IgG, MFI.
Assay [11] shares this target. In words: blocking cell ELISA: TIGIT-hFc or TIGIT-mFc (0.2 ug/ml) pre-mixed with the antibody, added to fixed CHO cells overexpressing CD155 (blocked ligand), OD450.

T4 sequence (chain, as listed by the source limits assumed): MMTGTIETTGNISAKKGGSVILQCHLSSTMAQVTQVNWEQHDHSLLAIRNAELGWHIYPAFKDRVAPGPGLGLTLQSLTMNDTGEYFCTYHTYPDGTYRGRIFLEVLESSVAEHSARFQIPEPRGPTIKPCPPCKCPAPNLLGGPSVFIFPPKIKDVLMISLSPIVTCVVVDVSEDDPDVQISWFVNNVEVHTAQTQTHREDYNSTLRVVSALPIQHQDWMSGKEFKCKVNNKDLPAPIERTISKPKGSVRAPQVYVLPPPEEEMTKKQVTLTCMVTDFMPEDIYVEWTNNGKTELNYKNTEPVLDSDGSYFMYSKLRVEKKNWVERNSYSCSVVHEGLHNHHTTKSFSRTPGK

B1: h1711-04 (antibody, human IgG4 S228P, kappa, V domains shown)
VH: EVQLVQSGAEVKKPGSSVKVSCKASGYTFSNYWIGWVRQAPGQGLEWIGDIYPGGAYTNYNEKFKDRVTITADKSTSTAYMEFSSLRSEDTAVYYCTRGDYYDSSGRAMDYWGQGTLVTVSS
VL: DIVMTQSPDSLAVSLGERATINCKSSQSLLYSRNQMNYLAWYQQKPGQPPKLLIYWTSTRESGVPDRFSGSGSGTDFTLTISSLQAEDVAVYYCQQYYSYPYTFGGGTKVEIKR
notes: also called humanized TIGIT antibody h1711-04
Usually Kd stands for the equilibrium constant for the complex coming apart. One may read the koff as the rate constant with which the complex falls apart. Low values mean a long-lived complex, high ones a short-lived complex. A word on the kon: it is a measure of how fast the partners come together. As usually defined, the EC50 is the midpoint of the concentration-response curve. A lower EC50 goes with higher potency in that assay. Usually EC50 (read off the curve) stands for the concentration that produces a half-maximal response. The low end stands for higher potency in that assay, the high end for lower potency in that assay. By IC50 is commonly meant the concentration at which inhibition is half-maximal. B1: the Kd came to 0.21 nM in assay [1], 0.238 nM in assay [5] and 0.129 nM in [6]. For the same molecule, the koff in [1] amounted to 0.000442 s⁻¹; in [5] it was 0.000436 s⁻¹; in [6] it was 0.000317 s⁻¹. Further, the results for the kon in assay [1], in assay [5] and in assay [6] were 2.1e+06 M⁻¹ s⁻¹, 1.83e+06 M⁻¹ s⁻¹ and 2.46e+06 M⁻¹ s⁻¹, respectively. Also, in assay [2], the EC50 stood at 0.0587 nM. Moreover, the “EC50 (read off the curve)” value is roughly 0.3 nM in assay [3], roughly 0.1 nM in assay [7] and roughly 0.1 nM in [9]. This molecule also registered an IC50 in assay [4] of 0.57 nM. Besides, the results for the “IC50 (read off the curve)” value in assay [8], in assay [10] and in assay [11] were roughly 3 nM, roughly 5 nM and roughly 1 nM, respectively.

B2: h1710-01 (antibody, human IgG4 S228P, kappa, V domains shown)
VH: EVQLVQSGAEVKKPGASVKVSCKASGYTFTNYYMHWVRQAPGQGLEWMGRIDPTSGATKYNDNFKGRVTMTRDTSTSTVYMELSSLRSEDTAVYYCAREGGFGYYFDYWGQGTTVTVSS
VL: DIQMTQSPSSLSASVGDRVTITCRTSENIFTYLAWYQQKPGKAPKLLIYNAKTFAEGVPSRFSGSGSGTDFTLTISSLQPEDFATYYCQHHYGIPLPFGQGTKLEIKR
notes: also called humanized TIGIT antibody h1710-01
B2 registered an EC50 in assay [2] of 0.0769 nM. For the same molecule, the “EC50 (read off the curve)” value is roughly 0.3 nM in assay [3], roughly 0.1 nM in [7] and roughly 0.1 nM in assay [9]. The molecule also had an IC50 in assay [4] of 0.468 nM. Moreover, the values for the dissociation constant (Kd) in assay [5] and in assay [6] were 0.147 nM and 0.322 nM, respectively. In addition, the koff was found to be 0.00024 s⁻¹ in assay [5] and 0.000371 s⁻¹ in assay [6]. Also, the kon in assay [5] stood at 1.63e+06 M⁻¹ s⁻¹; in [6], 1.15e+06 M⁻¹ s⁻¹. Further, the “IC50 (read off the curve)” value is roughly 2 nM in assay [8], roughly 5 nM in [10] and roughly 1 nM in assay [11].
